Target: PEDF receptor (unidentified cell surface receptor on bovine retinal capillary endothelial cells)
Test: cell-based or functional assay

inhibition of VEGF stimulated endothelial cell migration (BRCEC microchemotaxis chamber), IC50: 3 nM
Binder: VLLSPLSVATALSALSLGAEQRTESIIHRALYYDLISSPDIHGT [PEDF 44 AA peptide (residues 78-121 of human PEDF)]

— patent US20080293626A1 (Johns Hopkins, published 2008)
